From the supplement of paper PMC7877785
± gives the uncertainty stated by the source.

Experiment: self-splicing fitness, log relative to wild type (ln ratio); higher = more splicing; Tetrahymena group I intron in knt gene, E. coli kanamycin selection, DiMSum; sequences stand for … in CUCUCU…GGAGGGAAAAGUUAUCAGGCAUGCACCUGGUAGCUAGUCUUUAAACCAAUAGAUUGCAUCGGUUUAAAAGGCAAGACCGUCAAAUUGCGGGAAAGGGGUCAACAGCCGUUCAGUACCAAGUCUCAGGGGAAACUUUGAGAUGGCCUUGCAAAGGGUAUGGUAAUAAGCUGACGGACAUGGUCCUAACCACGCAGCCAAGUCCUAAGUCAACAGAUCUUCUGUUGAUAUGGAUGCAGUUCACAGACUAAAUGUCGGUCGGGGAAGAUGUAUUCUUCUCAUAAGAUAUAGUCGGACCUCUCCUUAAUGGGAGCUAGCGGAUGAAGUGAUGCAACACUGGAGCCGCUGGGAACUAAUUUGUAUGCGAAAGUAUAUUGAUUAGUUUUGGAGUACUCGUGGUCG
How it was run: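 Colonies from six replicate transformations of E. coli BL21(DE3) were pooled and amplicon-sequenced on an Illumina HiSeq 2500. The library placed an intron with all eight P1ex-region nucleotides randomised inside the knt kanamycin-resistance gene on pET-22b(+), and cells grew overnight at 37°C or 30°C on LB agar with or without 25 μg/mL kanamycin (plus 100 μg/mL carbenicillin, 50 μM IPTG, 0.2% rhamnose). Fitness is the DiMSum error-weighted combination of wild-type-normalised replicate fold changes, kanamycin versus none.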

Sequence | self-splicing fitness (ln) (30 °C) | self-splicing fitness (ln) (37 °C)
UGCUAGCAAUAUUACGCAUC | -3.95 ± 0.21 | -2.45 ± 0.17
UGCUAGCAAUAUUACGCAUG | -3.03 ± 0.34 | -0.445 ± 0.19
UGCUAGCAAUAUUACGCGAU | -4.01 ± 0.39 | -1.03 ± 0.15
UGCUAGCAAUAUUACGCGCA | -1.97 ± 0.23 | -0.803 ± 0.2
UGCUAGCAAUAUUACGCUAG | -2.28 ± 0.22 | -2.65 ± 0.34
UGCUAGCAAUAUUACGCUCA | -0.263 ± 0.15 | 0.646 ± 0.16
UGCUAGCAAUAUUACGGAAC | -1.04 ± 0.5 | 
UGCUAGCAAUAUUACGGCAC | -3.7 ± 0.42 | -2.19 ± 0.39
UGCUAGCAAUAUUACGGUCA | 0.0813 ± 0.11 | 0.529 ± 0.13
UGCUAGCAAUAUUACGGUGC | -3.92 ± 0.27 | -2.38 ± 0.26
UGCUAGCAAUAUUACGUACA | 0.0476 ± 0.1 | 0.533 ± 0.17
UGCUAGCAAUAUUACGUAUU | -3.06 ± 0.18 | -1.72 ± 0.24
UGCUAGCAAUAUUACGUCAA | -1.87 ± 0.13 | -1.13 ± 0.12
UGCUAGCAAUAUUACGUGCA | -2.54 ± 0.32 | -1.99 ± 0.28
UGCUAGCAAUAUUACGUGGU | -3.36 ± 0.22 | -2.13 ± 0.24
UGGAAGCAAUAUUACGAACA | -0.687 ± 0.13 | -0.937 ± 0.17
UGGAAGCAAUAUUACGAAUA | 0.136 ± 0.41 | -0.685 ± 0.28
UGGAAGCAAUAUUACGACGA | 0.0371 ± 0.18 | -0.862 ± 0.15
UGGAAGCAAUAUUACGAGCU | -1.95 ± 0.16 | -0.801 ± 0.15
UGGAAGCAAUAUUACGAUAU | -2.59 ± 0.18 | -2.39 ± 0.21
UGGAAGCAAUAUUACGAUGU | -1.75 ± 0.21 | -2 ± 0.22
UGGAAGCAAUAUUACGCAGU | -2.85 ± 0.4 | -1.6 ± 0.18
UGGAAGCAAUAUUACGCCAU | -3.64 ± 0.28 | -2.07 ± 0.36
UGGAAGCAAUAUUACGCCCU | -0.2 ± 0.14 | -0.0341 ± 0.18
UGGAAGCAAUAUUACGCGAC | -2.77 ± 0.37 | 

Sequence | self-splicing fitness (ln) (30 °C) | self-splicing fitness (ln) (37 °C)
UGGAAGCAAUAUUACGCGCC | -3.22 ± 0.32 | -1.54 ± 0.31
UGGAAGCAAUAUUACGCUGA |  | -0.713 ± 0.4
UGGAAGCAAUAUUACGGAGA | -2.7 ± 0.22 | -1.31 ± 0.13
UGGAAGCAAUAUUACGGAUA | -0.862 ± 0.084 | -1.04 ± 0.088
UGGAAGCAAUAUUACGGGAU | -1.89 ± 0.17 | -2.46 ± 0.28
UGGAAGCAAUAUUACGGUCU | -1.94 ± 0.14 | 0.0438 ± 0.16
UGGAAGCAAUAUUACGUCGA | -1.02 ± 0.072 | -0.272 ± 0.089
UGGAAGCAAUAUUACGUCGU | -2.12 ± 0.18 | -2.19 ± 0.25
UGGAAGCAAUAUUACGUCUG | -2.56 ± 0.25 | -1.52 ± 0.2
UGGAAGCAAUAUUACGUUUG | -0.722 ± 0.082 | -0.645 ± 0.13
UGGCAGCAAUAUUACGAAAA | -0.512 ± 0.082 | -0.934 ± 0.1
UGGCAGCAAUAUUACGAAGA | -1.98 ± 0.2 | -1.41 ± 0.2
UGGCAGCAAUAUUACGACCA | -0.399 ± 0.2 | -0.654 ± 0.2
UGGCAGCAAUAUUACGAGAC | -3.74 ± 0.48 | -1.09 ± 0.45
UGGCAGCAAUAUUACGAUAU | -2.5 ± 0.16 | -1.37 ± 0.21
UGGCAGCAAUAUUACGAUCC | -0.653 ± 0.3 | -0.564 ± 0.29
UGGCAGCAAUAUUACGCCCG | -0.568 ± 0.14 | -0.317 ± 0.21
UGGCAGCAAUAUUACGCCUU | -1.65 ± 0.14 | -0.596 ± 0.21
UGGCAGCAAUAUUACGCGAG | -1.96 ± 0.1 | -0.954 ± 0.097
UGGCAGCAAUAUUACGCUAU | -3.89 ± 0.25 | -1.8 ± 0.2
UGGCAGCAAUAUUACGCUUC | -2.18 ± 0.28 | 
UGGCAGCAAUAUUACGGCGU | -1.32 ± 0.12 | -0.678 ± 0.14
UGGCAGCAAUAUUACGGCUG | -3.05 ± 0.33 | -2.38 ± 0.46
UGGCAGCAAUAUUACGGGCG | 0.162 ± 0.071 | 0.586 ± 0.1
